One molecule from PMC7225057 (Journal of molecular biology, 2020) can be followed below.

The experiment deals with FITC-sCT(22–32) (salmon, FITC label). Description: fluorescence polarisation. (In general: Polarisation of emitted light reports the rotation of a fluorescent probe.)

B1: RAMP1-CTR.34–141 WT (tethered RAMP1-CTR ECD fusion, AMY1 receptor ECD) (receptor)
chain: TTACQEANYGALLRELCLTQFQVDMEAVGETLWCDWGRTIRSYRELADCTWHMAEKLGCFWPNAEVDRFFLAVHGRYFRSCPISGRAVIEPKPFLYVVGRKKMMDAQYKCYDRMQQLPAYQGEGPYCNRTWDGWLCWDDTPAGVLSYQFCPDYFPDFDPSEKVTKYCDEKGVWFKHPENNRTWSNYTMCNAFTPEK
modifications: N-glycosylated (HEK293S GnTI−, enzyme treatment: none)
For B1, binding was characterised by a dissociation constant (Kd) of 280 nM and the pKD – broadly, the KD on a negative log10 scale, so that one unit is a factor of ten – was 6.56.
